According to patent US20150329642A1 (Genmab, published 2015):
Where a chain is given by its changes, count along the chain named.

B1: anti-c-Met HuMab 005 (IgG1) (antibody, V domains shown)
VH: QVQLVQSGAEVKKPGSSVKVSCKASGGTFSSYGFGWVRQAPGQGLEWMGRISPILGIANYAQMFQGRVTITADKSTSTAYMELSSLRSEDTAVYYCARDVGYDWPDTFDIWGQGTMVIVSS
VL: DIQMTQSPSSLSASVGDRVTITCRASQGISSWLAWYQQKPEKAPKSLIYAASSLQSGVPSRFSGGGSGTDFTLTISSLQPEDFATYYCQQYNSFPPTFGQGTKVEIK
notes: also called TH1016-005; PC1016-005
B2: anti-c-Met HuMab 006 (IgG1) (antibody, V domains shown)
VH: B1 VH with Y32F, F34I, S52F, I57T, S84T, W104S, P105A, T107A, I118T
VL: B1 VL with G65S, F94Y
notes: also called TH1016-006; PC1016-006
B3: anti-c-Met HuMab 008 (IgG1) (antibody, V domains shown)
VH: EVQLVQSGAEVKKPGESLKISCKGSGYSFTSYWIGWVRQMPGKGLEWMGIIYPGDSETRYSPSFQGQVTISADKSISTAYLQWSSLKASDTAMYYCARQEITGEFDYWGQGTLVTVSS
VL: AIQLTQSPSSLSASVGDRVTITCRASQGISSALAWYQQKPGKAPKLLIYDASSLESGVPSRFSGSGSGTDFTLTISSLQPEDFATYYCQQFNSYPRTFGQGTKVEIK
notes: also called TH1016-008; PC1016-008
B4: IgG1-1016-022 (antibody, V domains shown)
VH: QVQLVESGGGVVQPGRSLRLSCAASGFTFSSYAMHWVRQAPGKGLEWVAVISYDGSNKYYADSVKGRFTISRDNSKNTLYLQMNSLRAEDTAVYYCARELLWFGELWGYFDLWGRGTLVTVSS
VL: B1 VL with L11V, Q38H, E41G, S46L, G65S, Q90E, Y91A, N92S, P95T, P96W
notes: also called TH1016-022; PC1016-022
B5: IgG1-024 (antibody, V domains shown)
VH: EVQLLESGGGLVQPGGSLRLSCVASGFTFSSYAMSWVRQAPGKGLEWVSAISGSSGGSTYYVDSVKGRFTISRANSKNTLYLQMNSLRAEDTAVYYCAKDLDRGWMGYFGYWGQGTLVTVSS
VL: DIQMTQSPSSVSASVGDRVTITCRASQGISSWLAWYQHKPGKAPKLLIYAASSLQSGVPSRFSGSGSGTDFTLTISSLQPEDFATYYCQQANSFPTFGQGTRLEIK
notes: also called TH1016-024; PC1016-024

These binders were tested against T1, cMetECDHis (human, UniProt P08581 25-932, limits assumed, biotinylated in the cross-block ELISA of Example 17) (assay: cross-block ELISA; competitor 058).
T1 construct: Expressed in HEK-293F cells; also called soluble cMetECDHis; biotinylated cMetECDHis
Procedure: (§1) First, the optimal coating concentrations of the tested anti-c-Met antibodies and the optimal cMetECDHis concentration were determined. Therefore, ELISA wells were coated overnight at 4° C. with anti-c-Met HuMabs serially diluted in PBS (8 μg/mL in 2-fold dilutions). Next, the ELISA wells were washed with PBST (PBS supplemented with 0.05% Tween-20 [Sigma-Aldrich, Zwijndrecht, The Netherlands]) and blocked for one hour at room temperature (RT) with PBSTC (PBST supplemented 2% [v/v] chicken serum [Gibco, Paisley, Scotland]). Subsequently, the ELISA wells were washed with PBST and incubated for one hour at RT with biotinylated cMetECDHis serially diluted in PBSTC (1 μg/mL in 2-fold dilutions). Unbound biotinylated cMetECDHis was washed away with PBST, and bound biotinylated cMetECDHis was incubated for one hour at RT with 0.1 μg/mL Streptavidin-poly-HRP (Sanquin, Amsterdam, The Netherlands) diluted in PBST.
(§2) ELISA wells were coated with anti-c-Met antibody at a sub-optimal dose as described above. After blocking of the ELISA wells, they were incubated with the predetermined concentration of biotinylated cMetECDHis in the presence of an excess of anti-c-Met antibody. The reaction was developed as described above. Residual binding was expressed as a percentage relative to the binding observed in the absence of competitor antibody.

| Binder | residual binding, % of no competitor [%] |
| --- | --- |
| B1 | 3.6 |
| B2 | 3.6 |
| B3 | 40.8 |
| B4 | 5.8 |
| B5 | 103 |

The binders below were run against T1, cMetECDHis (assay: cross-block ELISA; competitor 181).
Procedure: as §1, §2

| Binder | residual binding, % of no competitor [%] |
| --- | --- |
| B1 | 131 |
| B2 | 124 |
| B3 | 111 |
| B4 | 107 |
| B5 | 7.1 |

The binders below were run against T1, cMetECDHis (assay: cross-block ELISA; competitor G11-HZ).
Procedure: as §1, §2

| Binder | residual binding, % of no competitor [%] |
| --- | --- |
| B1 | 76.8 |
| B2 | 54 |
| B3 | 2.7 |
| B4 | 85.9 |
| B5 | 98.2 |

Each binder was assayed against T1, cMetECDHis (assay: cross-block ELISA; competitor 006).
Procedure: as §1, §2

| Binder | residual binding, % of no competitor [%] |
| --- | --- |
| B1 | 18.2 |
| B2 | 14.6 |
| B3 | 47.3 |
| B4 | 60.5 |
| B5 | 101 |

What follows are binders tested against T1, cMetECDHis (assay: cross-block ELISA; competitor 101).
Procedure: as §1, §2

| Binder | residual binding, % of no competitor [%] |
| --- | --- |
| B1 | 103 |
| B2 | 106 |
| B3 | 101 |
| B4 | 104 |
| B5 | 4.8 |

Each binder was assayed against T1, cMetECDHis (assay: cross-block ELISA; competitor 062).
Procedure: as §1, §2

| Binder | residual binding, % of no competitor [%] |
| --- | --- |
| B1 | 118 |
| B2 | 119 |
| B3 | 100 |
| B4 | 99.4 |
| B5 | 2.3 |

What follows are binders tested against T1, cMetECDHis (assay: cross-block ELISA; competitor 068).
Procedure: as §1, §2

| Binder | residual binding, % of no competitor [%] |
| --- | --- |
| B1 | 129 |
| B2 | 129 |
| B3 | 112 |
| B4 | 104 |
| B5 | 12 |

The binders below were run against T1, cMetECDHis (assay: cross-block ELISA; competitor 005).
Procedure: as §1, §2

| Binder | residual binding, % of no competitor [%] |
| --- | --- |
| B1 | 7.7 |
| B2 | 11.3 |
| B3 | 63.9 |
| B4 | 37.9 |
| B5 | 98.4 |

These binders were tested against T1, cMetECDHis (assay: cross-block ELISA; competitor 045).
Procedure: as §1, §2

| Binder | residual binding, % of no competitor [%] |
| --- | --- |
| B1 | 117 |
| B2 | 114 |
| B3 | 100 |
| B4 | 95.7 |
| B5 | 98.1 |

What follows are binders tested against T1, cMetECDHis (assay: cross-block ELISA; competitor 008).
Procedure: as §1, §2

| Binder | residual binding, % of no competitor [%] |
| --- | --- |
| B1 | 81.9 |
| B2 | 58.8 |
| B3 | 5.4 |
| B4 | 94.1 |
| B5 | 104 |

Each binder was assayed against T1, cMetECDHis (assay: BLI (Octet); antibody captured, cMetECDHis in solution).
Procedure: Antibody binding to cMetECDHis was analyzed by means of Bio-Layer Interferometry (BLI) technology on the Octet System (Fortebio, Menlo Park, USA). Anti-human IgG coated biosensors (Fc-specific) were used to capture anti-c-Met antibodies according to the procedure recommended by the manufacturer. cMetECDHis derived from HEK293 cells was loaded on top of the immobilized anti-c-Met antibodies by placing the loaded biosensor into a well containing 10 μg/mL cMetECDHis diluted in 10 times diluted kinetics buffer (Fortebio). The difference in reflection of light (AA, nm) of the biosensor surface due to the binding of cMetECDHis was measured in real time during approximately 10 minutes and was used by the Octet software (V4.0, Fortebio) to calculate the association constant (kₐ [1/M×s]). Next, the loaded biosensor was placed into a well containing only kinetics buffer (10 times diluted in PBS) to determine the dissociation constant (kd [1/s]). Kinetics analysis was performed to determine the affinity (KD [M]) using model 1:1 (langmuir). As a positive control, 0.2 μg/mL 5D5 IgG1 produced in HEK293 cells, was used.

| Binder | Kd [nM] | koff [s⁻¹] | kon [M⁻¹ s⁻¹] |
| --- | --- | --- | --- |
| B1 | 7.92 | 0.00252 | 318000 |
| B2 | 9.89 | 0.0042 | 425000 |
| B3 | 5.12 | 0.00157 | 308000 |
| B4 | 1.06 | 0.000251 | 236000 |
| B5 | 1.57 | 0.000228 | 145000 |

These binders were tested against T1, cMetECDHis (assay: cross-block ELISA; competitor 022).
Procedure: as §1, §2

| Binder | residual binding, % of no competitor [%] |
| --- | --- |
| B1 | 4.9 |
| B2 | 4.6 |
| B3 | 82.1 |
| B4 | 3.8 |
| B5 | 100 |

The binders below were run against T1, cMetECDHis (assay: cross-block ELISA; competitor 024).
Procedure: as §1, §2

| Binder | residual binding, % of no competitor [%] |
| --- | --- |
| B1 | 114 |
| B2 | 113 |
| B3 | 103 |
| B4 | 99.4 |
| B5 | 5.4 |

These binders were tested against T1, cMetECDHis (assay: cross-block ELISA; competitor 5D5).
Procedure: as §1, §2

| Binder | residual binding, % of no competitor [%] |
| --- | --- |
| B1 | 2.9 |
| B2 | 3.1 |
| B3 | 32.4 |
| B4 | 4.2 |
| B5 | 95.5 |

The binders below were run against T1, cMetECDHis (assay: cross-block ELISA; competitor 035).
Procedure: as §1, §2

| Binder | residual binding, % of no competitor [%] |
| --- | --- |
| B1 | 84.9 |
| B2 | 67.5 |
| B3 | 32.9 |
| B4 | 92.4 |
| B5 | 108 |

Each binder was assayed against T1, cMetECDHis (assay: cross-block ELISA; competitor 069).
Procedure: as §1, §2

| Binder | residual binding, % of no competitor [%] |
| --- | --- |
| B1 | 124 |
| B2 | 124 |
| B3 | 104 |
| B4 | 99.6 |
| B5 | 2.9 |

What follows are binders tested against T1, cMetECDHis (assay: cross-block ELISA; competitor 098).
Procedure: as §1, §2

| Binder | residual binding, % of no competitor [%] |
| --- | --- |
| B1 | 110 |
| B2 | 111 |
| B3 | 107 |
| B4 | 105 |
| B5 | 10.4 |
